In the assay the test system is target antigen-expressing cell line. The assay can be described thus: Jurkat NFAT-GFP assay, coculture with target cell lines expressing the respective target antigen (summary Table 10A). On the set-up: key: The signs +/−, +, 2+ etc. after the name of the cell lines indicate the relative degree of positivity on the Jurkat-NFAT-GFP assay as measured by the % GFP positive cells; +: relative degree of positivity on the Jurkat-NFAT-GFP assay as measured by the % GFP positive cells; 2+: relative degree of positivity on the Jurkat-NFAT-GFP assay as measured by the % GFP positive cells. It is filed as cell-based, human. Particulars: for NFAT-GFP ASSAY Positive Cell lines: L428: SIR-expressing Jurkat-NFAT-GFP cells cocultured with L428. The essentials: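 Readout is % GFP+ cells by FACS, graded +/− to 2+ relative to parental reporter cells. Jurkat-NFAT-GFP cells stably transduced with SIR constructs (puromycin-selected) were mixed with target-antigen-expressing cell lines at roughly 1:2 effector:target and cocultured ~4–18 h.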

The values that follow come from US12269859B2, “Synthetic immune receptors and methods of use thereof” (Angeles Therapeutics, Inc., priority 2016, dated 2025).

B1: 012517-J12 (protein)
chain: MALPVTALLLPLALLLHAARPLEGKPIPNPLLGLDSTGSGEDLKNVFPPEVAVFEPSKAEIAHTQKATLVCLATGFYPDHVELSWWVNGKEVHSGVCTDPQPLKEQPALNDSRYCLSSRLRVSATFWQNPRNHFRCQVQFYGLSENDEWTQDRAKPVTQIVSAEAWGRADCGITSASYHQGVLSATILYEILLGKATLYAVLVSALVLMAMVKRKDSRGRAKRSGSGATNFSLLKQAGDVEENPGPTSMALPVTALLLPLALLLHAARPDIQMTQSPASLSASLGETVTIECRTSKDIYSNLAWFQQEPGNSPQLLIYDASNLADGVPSRFSGSGSGTQYSLQINNLQSEDVASYFCHQYNNYPYTFGTGTKLELKGGGGSGGGGSGGGGSQVQLQESGPTLVNPGDSVKMSCKASGYTFTDHIIHWVKQSHGKSLEWIGYINPYSGGANYNGKFKSKATLTIDKSSSTAYMEFSRLTSGDSAIYYCALNYGSYYAMDAWGQGTSVTVSSTREQKLISEEDGSGIQNPDPAVYQLRDSKSSDKSVCLFTDFDSQTNVSQSKDSDVYITDKCVLDMRSMDFKSNSAVAWSNKSDFACANAFNNSIIPEDTFFPSSDVPCDVKLVEKSFETDTNLNFQNLSVIGFRILLLKVAGFNLLMTLRLWSSRAKRSGSGVKQTLNFDLLKLAGDVESNPGPSRGHMTEYKPTVRLATRDDVPRAVRTLAAAFADYPATRHTVDPDRHIERVTELQELFLTRVGLDIGKVWVADDGAAVAVWTTPESVEAGAVFAEIGPRMAELSGSRLAAQQQMEGLLAPHRPKEPAWFLATVGVSPDHQGKGLGSAVVLPGVEAAERAGVPAFLETSAPRNLPFYERLGFTVTADVEVPEGPRTWCMTRKPGA
As to B1, the “NFAT-GFP ASSAY Positive Cell lines: L428” value (relative % GFP positive cells) is on record as “L428 (2+)”.

B2: 083116-F05 (protein)
chain: MALPVTALLLPLALLLHAARPLEGKPIPNPLLGLDSTGSGEDLKNVFPPEVAVFEPSKAEIAHTQKATLVCLATGFYPDHVELSWWVNGKEVHSGVCTDPQPLKEQPALNDSRYCLSSRLRVSATFWQNPRNHFRCQVQFYGLSENDEWTQDRAKPVTQIVSAEAWGRADCGITSASYHQGVLSATILYEILLGKATLYAVLVSALVLMAMVKRKDSRGRAKRSGSGATNFSLLKQAGDVEENPGPTSMALPVTALLLPLALLLHAARPDIQMTQSTSSLSASLGDRVTISCSASQGINNYLNWYQQKPDGTVELLIYYTSTLQSGVPSRFSGSGSGTDYSLTISNLEPEDIGTYYCQQYSKLPRTFGGGTKLEIKGGGGSGGGGSGGGGSQVQLQQSGSELMMPGASVKISCKATGYTFSNYWIEWVKQRPGHGLEWIGEILPGTGRTIYNEKFKGKATFTADISSNTVQMQLSSLTSEDSAVYYCARRDYYGNFYYAMDYWGQGTSVTVSSTREQKLISEEDLGSGTPFPSLAPPIMLLVDGKQQMVVVCLVLDVAPPGLDSPIWFSAGNGSALDAFTYGPSPATDGTWTNLAHLSLPSEELASWEPLVCHTGPGAEGHSRSTQPMHLSGEASTARTCPQEPLRGTPGGALWLGVLRLLLFKLLLFDLLLTCSCLCDPAGPLPSPATTTRLRALGSHRLHPATETGGREATSSPRPQPRDRRWGDTPPGRKPGSPVRAKRSGSGVKQTLNFDLLKLAGDVESNPGPSRSRGHMTEYKPTVRLATRDDVPRAVRTLAAAFADYPATRHTVDPDRHIERVTELQELFLTRVGLDIGKVWVADDGAAVAVWTTPESVEAGAVFAEIGPRMAELSGSRLAAQQQMEGLLAPHRPKEPAWFLATVGVSPDHQGKGLGSAVVLPGVEAAERAGVPAFLETSAPRNLPFYERLGFTVTADVEVPEGPRTWCMTRKPGA
modifications: Polynucleotide encoding a Synthetic Immune Receptor (SIR)
Take B2: where the note is “coculture with U266 cells”, the “NFAT-GFP ASSAY Positive Cell lines” value is on record as “U266 (+/−)”.

B3: 090116-H02 (protein)
chain: MALPVTALLLPLALLLHAARPLEGKPIPNPLLGLDSTGSGEDLKNVFPPEVAVFEPSKAEIAHTQKATLVCLATGFYPDHVELSWWVNGKEVHSGVCTDPQPLKEQPALNDSRYCLSSRLRVSATFWQNPRNHFRCQVQFYGLSENDEWTQDRAKPVTQIVSAEAWGRADCGITSASYHQGVLSATILYEILLGKATLYAVLVSALVLMAMVKRKDSRGRAKRSGSGATNFSLLKQAGDVEENPGPTSMALPVTALLLPLALLLHAARPDIQMTQSTSSLSASLGDRVTISCSASQGINNYLNWYQQKPDGTVELLIYYTSTLQSGVPSRFSGSGSGTDYSLTISNLEPEDIGTYYCQQYSKLPRTFGGGTKLEIKGGGGSGGGGSGGGGSQVQLQQSGSELMMPGASVKISCKATGYTFSNYWIEWVKQRPGHGLEWIGEILPGTGRTIYNEKFKGKATFTADISSNTVQMQLSSLTSEDSAVYYCARRDYYGNFYYAMDYWGQGTSVTVSSTREQKLISEEDGSGIQNPDPAVYQLRDSKSSDKSVCLFTDFDSQTNVSQSKDSDVYITDKCVLDMRSMDFKSNSAVAWSNKSDFACANAFNNSIIPEDTFFPSSDVPCDVKLVEKSFETDTNLNFQNLSVIGFRILLLKVAGFNLLMTLRLWSSRAKRSGSGVKQTLNFDLLKLAGDVESNPGPSRGHMTEYKPTVRLATRDDVPRAVRTLAAAFADYPATRHTVDPDRHIERVTELQELFLTRVGLDIGKVWVADDGAAVAVWTTPESVEAGAVFAEIGPRMAELSGSRLAAQQQMEGLLAPHRPKEPAWFLATVGVSPDHQGKGLGSAVVLPGVEAAERAGVPAFLETSAPRNLPFYERLGFTVTADVEVPEGPRTWCMTRKPGA
modifications: Synthetic Immune Receptor (SIR)
B3: the “NFAT-GFP ASSAY Positive Cell lines” value is “L363 (+), U266 (+)” (coculture with L363 cells) and “L363 (+), U266 (+)” (coculture with U266 cells).

B4: 012517-G12 (protein)
chain: MALPVTALLLPLALLLHAARPLEGKPIPNPLLGLDSTGSGEDLKNVFPPEVAVFEPSKAEIAHTQKATLVCLATGFYPDHVELSWWVNGKEVHSGVCTDPQPLKEQPALNDSRYCLSSRLRVSATFWQNPRNHFRCQVQFYGLSENDEWTQDRAKPVTQIVSAEAWGRADCGITSASYHQGVLSATILYEILLGKATLYAVLVSALVLMAMVKRKDSRGRAKRSGSGATNFSLLKQAGDVEENPGPTSMALPVTALLLPLALLLHAARPDFVMTQSPDSLAVSLGERVTMSCKSSQSLLNSGNQKNYLTWYQQKPGQPPKLLIYWASTRESGVPDRFSGSGSGTDFTLTISSLQAEDVAVYYCQNDYSYPYTFGQGTKLEIKGGGGSGGGGSGGGGSQVQLVQSGAELKKPGASVKVSCKASGYTFTDYYMKWVRQAPGQGLEWIGDIIPSNGATFYNQKFKGRVTITVDKSTSTAYMELSSLRSEDTAVYYCARSHLLRASWFAYWGQGTLVTVSSTREQKLISEEDGSGIQNPDPAVYQLRDSKSSDKSVCLFTDFDSQTNVSQSKDSDVYITDKCVLDMRSMDFKSNSAVAWSNKSDFACANAFNNSIIPEDTFFPSSDVPCDVKLVEKSFETDTNLNFQNLSVIGFRILLLKVAGFNLLMTLRLWSSRAKRSGSGVKQTLNFDLLKLAGDVESNPGPSRGHMTEYKPTVRLATRDDVPRAVRTLAAAFADYPATRHTVDPDRHIERVTELQELFLTRVGLDIGKVWVADDGAAVAVWTTPESVEAGAVFAEIGPRMAELSGSRLAAQQQMEGLLAPHRPKEPAWFLATVGVSPDHQGKGLGSAVVLPGVEAAERAGVPAFLETSAPRNLPFYERLGFTVTADVEVPEGPRTWCMTRKPGA
On to B4, for which the “NFAT-GFP ASSAY Positive Cell lines: L428” value (relative % GFP positive cells) is given as “L428 (+/−)”.

B5: 012517-M12 (protein)
chain: MALPVTALLLPLALLLHAARPLEGKPIPNPLLGLDSTGSGEDLKNVFPPEVAVFEPSKAEIAHTQKATLVCLATGFYPDHVELSWWVNGKEVHSGVCTDPQPLKEQPALNDSRYCLSSRLRVSATFWQNPRNHFRCQVQFYGLSENDEWTQDRAKPVTQIVSAEAWGRADCGITSASYHQGVLSATILYEILLGKATLYAVLVSALVLMAMVKRKDSRGRAKRSGSGATNFSLLKQAGDVEENPGPTSMALPVTALLLPLALLLHAARPDVLMTQTPVSLPVSLGGQVSISCRSSQSLVHSDGDTYLHWYLQKPGQSPQLLIYRVSNRFSGVPDRFSGSGSGTDFTLKISRVEPEDLGLYYCLQTTHFPPWTFGGGTKLEMKGGGGSGGGGSGGGGSQVQLQQSGPELRRPGSSVRLSCKASGYRIKDFLIHWIKNRPEHGLEWIGWIDPEDGETKYAQKFQTKATLTADTSSNTAYMQLSSLTSEDTATYFCARWGDVYYGLMRGHVMDAWGQGTSVTVSSTREQKLISEEDGSGIQNPDPAVYQLRDSKSSDKSVCLFTDFDSQTNVSQSKDSDVYITDKCVLDMRSMDFKSNSAVAWSNKSDFACANAFNNSIIPEDTFFPSSDVPCDVKLVEKSFETDTNLNFQNLSVIGFRILLLKVAGFNLLMTLRLWSSRAKRSGSGVKQTLNFDLLKLAGDVESNPGPSRGHMTEYKPTVRLATRDDVPRAVRTLAAAFADYPATRHTVDPDRHIERVTELQELFLTRVGLDIGKVWVADDGAAVAVWTTPESVEAGAVFAEIGPRMAELSGSRLAAQQQMEGLLAPHRPKEPAWFLATVGVSPDHQGKGLGSAVVLPGVEAAERAGVPAFLETSAPRNLPFYERLGFTVTADVEVPEGPRTWCMTRKPGA
B5: the “NFAT-GFP ASSAY Positive Cell lines: L428” value (relative % GFP positive cells) was “L428 (+)”.

B6: 031517-T06 (protein)
chain: MALPVTALLLPLALLLHAARPLEGKPIPNPLLGLDSTGSGEDLKNVFPPEVAVFEPSKAEIAHTQKATLVCLATGFYPDHVELSWWVNGKEVHSGVCTDPQPLKEQPALNDSRYCLSSRLRVSATFWQNPRNHFRCQVQFYGLSENDEWTQDRAKPVTQIVSAEAWGRADCGITSASYHQGVLSATILYEILLGKATLYAVLVSALVLMAMVKRKDSRGRAKRSGSGATNFSLLKQAGDVEENPGPTSMALPVTALLLPLALLLHAARPDIVLTQSPATLSLSPGDRATLSCRASESVTILGSHLIYWYQQKPGQAPRLLIQLASNVQTGIPARFSGSGSRTDFTLTISSLEPEDFAVYYCLQSRTIPRTFGQGTKLEIKRGGGGSGGGGSGGGGSQVQLVQSGSELKKPGESVKISCKASGYTFTHYSMNWVRQAPGQGLEWMGRINTETGEPLYADDFKGRFVFSLDTSASTAYLQISSLKAEDTAVYYCSNDYLYSLDYWGQGTLVTVSSTREQKLISEEDGSGIQNPDPAVYQLRDSKSSDKSVCLFTDFDSQTNVSQSKDSDVYITDKCVLDMRSMDFKSNSAVAWSNKSDFACANAFNNSIIPEDTFFPSSDVPCDVKLVEKSFETDTNLNFQNLSVIGFRILLLKVAGFNLLMTLRLWSSRAKRSGSGVKQTLNFDLLKLAGDVESNPGPSRGHMTEYKPTVRLATRDDVPRAVRTLAAAFADYPATRHTVDPDRHIERVTELQELFLTRVGLDIGKVWVADDGAAVAVWTTPESVEAGAVFAEIGPRMAELSGSRLAAQQQMEGLLAPHRPKEPAWFLATVGVSPDHQGKGLGSAVVLPGVEAAERAGVPAFLETSAPRNLPFYERLGFTVTADVEVPEGPRTWCMTRKPGA
Turning to B6, under “SIR-expressing Jurkat-NFAT-GFP cells cocultured with L363, relative % GFP positive cells”, the “NFAT-GFP ASSAY Positive Cell lines: L363” value was “L363 (+/−), U266”. In addition, for the setting “SIR-expressing Jurkat-NFAT-GFP cells cocultured with U266, relative % GFP positive cells”, the “NFAT-GFP ASSAY Positive Cell lines: U266” value is “(+/−)”.
